Our source for the Kd and phase separation of Dsk2 alone, saturation concentration (csat) against temperature (20 mM NaPhosphate pH 6.8, 150 mM NaCl, 7.5% PEG 8000, 0.5 mM EDTA) values is PMC13083955.

Assay [1] concerns the target Dsk2 UBA (Saccharomyces cerevisiae) (UniProt P48510). To be noted: cited from earlier work.
Assay [2] has as its target full-length Dsk2 (yeast (S. cerevisiae)) (UniProt P48510).

Take Dsk2 UBL (from UniProt P48510): the Kd in assay [1] is 80 µM.
Take “full-length Dsk2 (from UniProt P48510 1-373) (natural protein)”: the phase separation of Dsk2 alone, saturation concentration (csat) against temperature (20 mM NaPhosphate pH 6.8, 150 mM NaCl, 7.5% PEG 8000, 0.5 mM EDTA) in assay [2] was determined as 10 µM.
